Results reported in publication PMC8244488 (Current Research in Structural Biology, 2021).
No end group written: not given here.

T1: human Shank1 PDZ (652-765), GST tag removed (human, UniProt Q9Y566 652-765)
T1 sequence: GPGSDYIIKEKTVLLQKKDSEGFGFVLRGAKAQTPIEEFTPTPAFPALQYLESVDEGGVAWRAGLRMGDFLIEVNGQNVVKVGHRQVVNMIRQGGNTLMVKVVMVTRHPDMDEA

B1: human Shank1 PDZ (652-765), GST tag removed (domain or fragment)
chain: T1 sequence

Columns and labels:
[1] = molecular target: C-terminally truncated ARAP3 peptide (human); experiment: fluorescence polarisation
[2] = molecular target: T1, human Shank1 PDZ (652-765), GST tag …; experiment: fluorescence polarisation

Binder	fold change in affinity against ARAP3 (1414-1429) [1] [fold]	binding result [2]
B1	2.5	
FPELIQDTSTSFSTTR (also: FITC label, position not given here) [ARAP3_(1414-1429) peptide]		binds
